Source: article PMC3973126 (Journal of Human Genetics, 2014)

Target: the molecule itself
Experiment: atomic force microscopy

B1: UGT1A1 (sample observed by atomic force microscopy) (enzyme, human, UniProt P22309 26-533, looked up)
chain: HAGKILLIPVDGSHWLSMLGAIQQLQQRGHEIVVLAPDASLYIRDGAFYTLKTYPVPFQREDVKESFVSLGHNVFENDSFLQRVIKTYKKIKKDSAMLLSGCSHLLHNKELMASLAESSFDVMLTDPFLPCSPIVAQYLSLPTVFFLHALPCSLEFEATQCPNPFSYVPRPLSSHSDHMTFLQRVKNMLIAFSQNFLCDVVYSPYATLASEFLQREVTVQDLLSSASVWLFRSDFVKDYPRPIMPNMVFVGGINCLHQNPLSQEFEAYINASGEHGIVVFSLGSMVSEIPEKKAMAIADALGKIPQTVLWRYTGTRPSNLANNTILVKWLPQNDLLGHPMTRAFITHAGSHGVYESICNGVPMVMMPLFGDQMDNAKRMETKGAGVTLNVLEMTSEDLENALKAVINDKSYKENIMRLSSLHKDRPVEPLDLAVFWVEFVMRHKGAPHLRPAAHDLTWYQYHSLDVIGFLLAVVLTVAFITFKCCAYGYRKCLGKKGRVKKAHKSKTH
stoichiometry N: 2
